Series [1] can be described thus: in vivo sublingual administration to rats, active agent in plasma by HPLC. Also on record: species or system Sprague Dawley rats. The settings on record: sublingual experimental formulation in rats; ng/mL in serum relative to ng/mL in serum from published studies (conventional control dose). The procedure:
Formulations comprising a variety of active agents were also tested in vivo. A […] volume/400 g animal formulation was administered sublingually to rats (Sprague Dawley rats, with jugular catheters were purchased from Charles River Laboratories). All rats were in the 275-300 g weight range.
All dose formulations were prepared on the day of dosing. Prior to dose administration, each rat was anesthetized with ketamine:xylazine (7:1, 60 mg/kg, IM) and positioned (supine) so that the head and shoulders were in alignment to preclude drainage of the dose into the trachea or esophagus. The mouth was opened and the interior (including under the tongue) was swabbed with dry cotton applicators. The tongue was held up and the dose was dispensed (same technician for all applications) into the sublingual pocket. The tongue was allowed to return to a normal position and the mouth was allowed to close.
Blood samples were drawn via catheter or cardiac puncture either 10 minutes following administration, or over a time range including 30 seconds, 1 minute, 5 minutes and 15 minutes following administration. The concentration (ng/mL) of the active agent in rat plasma was calculated using high powered liquid chromatography (HPLC). Efficiency was calculated as (ng/mL administered active agent in serum)/(ng/mL active agent in serum from published studies).

Series [2] can be described thus: in vitro diffusion of formulation across membrane mounted on vial. The format is in vitro ADME, pig or sheep. The settings on record: for Optimal pH Conditions with Experimental Formulation: pH found to produce rapid diffusion across the membrane, pH adjusted with sodium bicarbonate or citric acid. The text has this:
A flat section of either pig or sheep intestinal membrane is mounted across the open top of the vial. A screw top having a 7 mm hole (approximate) is then screwed to the vial, thereby securing the membrane to the vial. The vial is inverted and immersed in an isotonic solution (e.g., saline). Diffusion of the formulation is then allowed to proceed. The isotonic solution may be agitated with a magnetic stirrer. A pipette is used to sampling the saline solution at designated time intervals (e.g., 5, 10, 30, 60, 90, 180, and 600 seconds).
Other membranes may be used, including commonly available natural casing for food preparation, or cell culture human membranes (e.g. membranes from MatTek Corporation; Ashland, Mass.). […] Samples may contain vitamin B12 and arginine. The pH of the formulation may be adjusted as necessary.
The following compounds were analyzed in in vitro tests and the pH of the solutions were adjusted to the values noted below with either sodium bicarbonate (solid) or citric acid to produce the desired testing pH solutions.

Counter-ions that a name gives are not always drawn.

For `CCCC[C@H](NC(C)=O)C(=O)N[C@H]1CC(=O)NCCCC[C@@H](C(=O)O)NC(=O)[C@H](Cc2c[nH]c3ccccc23)NC(=O)[C@H](CCCN=C(N)N)NC(=O)[C@@H](Cc2ccccc2)NC(=O)[C@H](Cc2cnc[nH]2)NC1=O` [Bremelanotide], the “Observed Plasma Levels” value in series [1] was determined as 136.00%. Also, the “Optimal pH Conditions with Experimental Formulation” value (“Optimal pH Conditions” for short) in series [2] was “pH 6.0 to 8.0”.

In the case of `CNC[C@H](O)c1ccc(O)c(O)c1` [Epinephrine], the “Observed Plasma Levels” value in series [1] fell in the range of 0 to 600%. Moreover, the “Optimal pH Conditions” value in series [2] is “pH 5.0 to 7.0”.

Regarding `CCCc1nn(C)c2c(=O)[nH]c(-c3cc(S(=O)(=O)N4CCN(C)CC4)ccc3OCC)nc12` [Sildenafil], in series [2], the “Optimal pH Conditions” value was “pH 6.8”.

For `CC[C@H](C)[C@H](NC(=O)[C@H](CCC(=O)O)NC(=O)[C@H](CO)NC(=O)[C@@H](NC(=O)[C@@H](N)CO)C(C)C)C(=O)N[C@@H](CCC(N)=O)C(=O)N[C@@H](CC(C)C)C(=O)N[C@@H](CCSC)C(=O)N[C@@H](Cc1cnc[nH]1)C(=O)N[C@@H](CC(N)=O)C(=O)N[C@@H](CC(C)C)C(=O)NCC(=O)N[C@@H](CCCCN)C(=O)N[C@@H](Cc1cnc[nH]1)C(=O)N[C@@H](CC(C)C)C(=O)N[C@@H](CC(N)=O)C(=O)N[C@@H](CO)C(=O)N[C@@H](CCSC)C(=O)N[C@@H](CCC(=O)O)C(=O)N[C@@H](CCCN=C(N)N)C(=O)N[C@H](C(=O)N[C@@H](CCC(=O)O)C(=O)N[C@@H](Cc1c[nH]c2ccccc12)C(=O)N[C@@H](CC(C)C)C(=O)N[C@@H](CCCN=C(N)N)C(=O)N[C@@H](CCCCN)C(=O)N[C@@H](CCCCN)C(=O)N[C@@H](CC(C)C)C(=O)N[C@@H](CCC(N)=O)C(=O)N[C@@H](CC(=O)O)C(=O)N[C@H](C(=O)N[C@@H](Cc1cnc[nH]1)C(=O)N[C@@H](CC(N)=O)C(=O)N[C@@H](Cc1ccccc1)C(=O)O)C(C)C)C(C)C` [Teriparatide (rDNA Origin), Teriparatide], the “Optimal pH Conditions” value in series [2] is reported as “pH 6.8”.

`CCCc1nn(C)c2c(=O)[nH]c(-c3cc(S(=O)(=O)N4CCN(C)CC4)ccc3OCC)nc12` [sildenafil citrate]: in series [1], the “Observed Plasma Levels” value stood at 169.00%.

For Adalimumab, the “Optimal pH Conditions” value in series [2] is “pH 7.7”.

Take Enoxaparin Sodium: the “Optimal pH Conditions” value in series [2] is reported as “pH 8.0 to 6.0”.

As for Etanercept, in series [2] (at lower pH values (than approximately 8.0)), the rate of absorption result is listed as “dramatically reduced by at least a factor of five times”. In addition, the “transport of the drug after elimination of each of the cofactors of the formulation” value in series [2] (in most tests) is on record as “slight to substantial decreases”. Besides, in series [2] (in vitro membrane test of Example 3), the “pH at which transport occurred” value was found to be 8 pH. Besides, the “rates of membrane transport” value in series [2] (pH adjusted to approximately 8.0) was “substantially increased”. The “Optimal pH Conditions” value in series [2] was “pH 8”.

B1: Neupogen: a filgrastim (e.g., G-CSF, Neupogen) (protein, UniProt P09919 31-207, looked up)
Granulocyte …: TPLGPASSLPQSFLLKCLEQVRKIQGDGAALQEKLVSECATYKLCHPEELVLLGHSLGIPWAPLSSCPSQALQLAGCLSQLHSGLFLYQGLLQALEGISPELGPTLDTLQLDVADFATTIWQQMEELGMAPALQPTQGAMPAFASAFQRRAGGVLVASHLQSFLEVSYRVLRHLAQP
modifications: filgrastim
Turning to B1, the “Optimal pH Conditions” value in series [2] is “pH 7.4”.
